Patent US20260250381A1
Where a chain is given by its changes, count along the chain named.

T1: human TREM2 (human) (UniProt Q9NZC2)
T1 sequence (looked up): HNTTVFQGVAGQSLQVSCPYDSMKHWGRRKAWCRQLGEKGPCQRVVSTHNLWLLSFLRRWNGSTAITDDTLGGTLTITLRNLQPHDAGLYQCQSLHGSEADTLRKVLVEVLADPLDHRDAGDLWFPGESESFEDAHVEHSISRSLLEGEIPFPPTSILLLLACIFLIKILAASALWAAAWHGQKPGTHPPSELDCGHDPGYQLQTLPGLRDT

B1: 6E7 variant V36 (antibody, V domains shown)
VH: EVQLVQSGAEVKKPGESLKISCKGSGYSFTSYWLAWVRQMPGKGLEWMGIIYPGDSDTRYSPSFQGQVTISADKSISTAYLQWSSLKASDTAMYFCARSRTFYYDSSDYFDYWGQGTLVTVSS
VL: DIQMTQSPSSVSASVGDRVTITCRASQGISSWLAWYQQKPGKAPKLLIYAASSRQNGVPSRFSGSGSGTDFTLTISSLQPEDFATYFCQQADSYPRTFGQGTKLEIK
B2: 6E7 variant V38 (antibody, V domains shown)
VH: B1 VH with T30G, L34I, T58V, S99Q
VL: B1 VL with Y94H
B3: 6E7 variant V61 (antibody, V domains shown)
VH: B1 VH with T30S, L34I, S61N, S99G
VL: B1 VL with R54L, Q55V, Y94L
B4: 6E7 variant V2 (antibody, V domains shown)
VH: B1 VH with Y27S, L34I, S56G
VL: B1 VL with S93R, Y94F
B5: 6E7 variant V49 (antibody, V domains shown)
VH: B1 VH with T30N, L34I, I50T, Y60L
VL: B1 VL
B6: 6E7 variant V51 (antibody, V domains shown)
VH: B1 VH with L34I, T58V, S99G, Y112N
VL: B1 VL with Y94F
B7: 6E7 variant V65 (antibody, V domains shown)
VH: B1 VH with L34I
VL: B1 VL with R54L, Y94F
B8: 6E7 variant V50 (antibody, V domains shown)
VH: B1 VH with T30G, L34I, I50V, S99Q, F110L
VL: B1 VL with Y94L
B9: 6E7 variant V74 (antibody, V domains shown)
VH: B1 VH with T30A, L34I, T58V, S99G
VL: B1 VL with R54L, N56L, Y94F
B10: 6E7 variant V53 (antibody, V domains shown)
VH: B1 VH with L34I, S63H, S99Q
VL: B1 VL with R54L, Y94F
B11: 6E7 variant V48 (antibody, V domains shown)
VH: B1 VH with T30G, L34I, T58V, S99M
VL: B1 VL with R54L, N56T, Y94L
B12: 6E7 variant V41 (antibody, V domains shown)
VH: B1 VH with L34I, I50T, S99Q
VL: B1 VL with R54L, Y94F
B13: 6E7 variant V60 (antibody, V domains shown)
VH: B1 VH with S28H, L34I, T58V, S99Q, F110S
VL: B1 VL with R54L, N56R, Q89G, Y94F
B14: 6E7 variant V1 (antibody, V domains shown)
VH: B1 VH with Y32S, L34I
VL: B1 VL with R54L, Q55T
B15: 6E7 variant V37 (antibody, V domains shown)
VH: B1 VH with F29H, L34I, Q65A
VL: B1 VL with R54L, N56W
B16: 6E7 variant V62 (antibody, V domains shown)
VH: B1 VH with T30G, L34I, S61A, S99Q, D108G
VL: B1 VL with R54L, N56R, Q89G, Y94F
B17: 6E7 variant V64 (antibody, V domains shown)
VH: B1 VH with T30Q, L34I, S99G
VL: B1 VL with R54L, Q55A
B18: 6E7 variant V39 (antibody, V domains shown)
VH: B1 VH with T30G, L34I, S61N, S99G
VL: B1 VL with R54L, Q55V, Y94S
B19: 6E7 variant V73 (antibody, V domains shown)
VH: B1 VH with T30G, L34I, S63G, S99G
VL: B1 VL
B20: 6E7 variant V63 (antibody, V domains shown)
VH: B1 VH with T30R, L34I
VL: B1 VL with R54L, N56R, S93R, Y94F
B21: 6E7 variant V40 (antibody, V domains shown)
VH: B1 VH with T30G, L34I, T58V, S99Q, F110S
VL: B1 VL with R54L, N56L, S93R, Y94F
B22: 6E7 variant V22 (antibody, V domains shown)
VH: B1 VH with L34I, S99Q
VL: B1 VL with A50R, R54L, Y94F
B23: 6E7 variant V30 (antibody, V domains shown)
VH: B1 VH with Y27S, L34I, S99Q
VL: B1 VL with R54L, Y94F
B24: 6E7 variant V20 (antibody, V domains shown)
VH: B1 VH with L34I, I50R, S99Q
VL: B1 VL with R54L, Y94F
B25: 6E7 variant V18 (antibody, V domains shown)
VH: B1 VH with W33H, L34I, S99Q
VL: B1 VL with R54L, Y94F
B26: 6E7 variant V19 (antibody, V domains shown)
VH: B1 VH with Y32S, L34I, S99Q
VL: B1 VL with R54L, Y94F
B27: 6E7 variant V31 (antibody, V domains shown)
VH: B1 VH with L34I, D57E, S99Q
VL: B1 VL with R54L, Y94F
B28: 6E7 variant V23 (antibody, V domains shown)
VH: B1 VH with L34I, S99Q
VL: B1 VL with R54L, Y94F, R96L
B29: 6E7 variant V32 (antibody, V domains shown)
VH: B1 VH with L34I, P62N, S99Q
VL: B1 VL with R54L, Y94F
B30: 6E7 variant V33 (antibody, V domains shown)
VH: B1 VH with L34I, S99Q, Y104G
VL: B1 VL with R54L, Y94F
B31: 6E7 variant V21 (antibody, V domains shown)
VH: B1 VH with L34I, S99Q, Y109F
VL: B1 VL with R54L, Y94F
B32: 6E7 variant V11 (antibody, V domains shown)
VH: B1 VH with L34I, S99Q
VL: B1 VL with R54L, D92A, Y94F

Target: T1, human TREM2 (human)
Test: 2nd screen, 10 nM Ab

First: B1
Second: B2
The Binding Signal (fold over 6E7 parental antibody) of the first is lower: 3.44 fold for the first, 4.36 fold for the second.

First: B3
Second: B4
The Binding Signal (fold over 6E7 parental antibody) of the first is higher: 5.22 fold for the first, 2.9 fold for the second.

First: B5
Second: B6
The Binding Signal (fold over 6E7 parental antibody) of the first is higher: 6.58 fold for the first, 3.18 fold for the second.

Going from B7 to B8, the Binding Signal (fold over 6E7 parental antibody) rises from 2.75 fold to 4.16 fold.

Going from B9 to B10, the Binding Signal (fold over 6E7 parental antibody) falls from 4.01 fold to 1.17 fold.

First: B11
Second: B12
The Binding Signal (fold over 6E7 parental antibody) of the first is higher: 2.54 fold for the first, 1.72 fold for the second.

First: B13
Second: B14
The Binding Signal (fold over 6E7 parental antibody) of the first is higher: 3.63 fold for the first, 1.92 fold for the second.

First: B15
Second: B16
The Binding Signal (fold over 6E7 parental antibody) of the first is higher: 3.49 fold for the first, 2.89 fold for the second.

First: B17
Second: B18
The Binding Signal (fold over 6E7 parental antibody) of the first is lower: 5.48 fold for the first, 5.81 fold for the second.

Going from B19 to B20, the Binding Signal (fold over 6E7 parental antibody) falls from 5.44 fold to 3.71 fold.

Work on B21 yielded a Binding Signal (fold over 6E7 parental antibody) of 4.16 fold.

Target: T1, human TREM2 (human)
Test: 1st screen, 10 nM Ab

Going from B1 to B2, the Binding Signal (fold over 6E7 parental antibody) rises from 3.38 fold to 4.34 fold.

First: B3
Second: B4
The Binding Signal (fold over 6E7 parental antibody) of the first is higher: 5.08 fold for the first, 2.55 fold for the second.

First: B5
Second: B6
The Binding Signal (fold over 6E7 parental antibody) of the first is higher: 6.51 fold for the first, 2.81 fold for the second.

First: B7
Second: B8
The Binding Signal (fold over 6E7 parental antibody) of the first is lower: 2.05 fold for the first, 4.1 fold for the second.

Compared with B9, B10 is lower in Binding Signal (fold over 6E7 parental antibody): 3.94 fold for the first, 1.25 fold for the second.

First: B11
Second: B12
The Binding Signal (fold over 6E7 parental antibody) of the first is higher: 2.42 fold for the first, 1.74 fold for the second.

Compared with B13, B14 is lower in Binding Signal (fold over 6E7 parental antibody): 3.26 fold for the first, 1.68 fold for the second.

Compared with B15, B16 is lower in Binding Signal (fold over 6E7 parental antibody): 3.46 fold for the first, 2.49 fold for the second.

Going from B17 to B18, the Binding Signal (fold over 6E7 parental antibody) rises from 5.41 fold to 6.15 fold.

First: B19
Second: B20
The Binding Signal (fold over 6E7 parental antibody) of the first is higher: 5.12 fold for the first, 3.76 fold for the second.

B21 was tested, and the Binding Signal (fold over 6E7 parental antibody) was 4.48 fold.

Target: T1, human TREM2 (human)
Test: 2nd screen, 100 nM Ab

Going from B22 to B23, the Binding Signal (fold over 6E7 parental antibody) rises from 0.71 fold to 0.72 fold.

Compared with B24, B25 is lower in Binding Signal (fold over 6E7 parental antibody): 0.52 fold for the first, 0.42 fold for the second.

First: B26
Second: B27
The Binding Signal (fold over 6E7 parental antibody) of the first is lower: 0.48 fold for the first, 0.73 fold for the second.

Going from B28 to B29, the Binding Signal (fold over 6E7 parental antibody) rises from 0.4 fold to 0.89 fold.

Going from B30 to B31, the Binding Signal (fold over 6E7 parental antibody) rises from 0.34 fold to 0.68 fold.

With B32 the Binding Signal (fold over 6E7 parental antibody) was 0.42 fold.

Target: T1, human TREM2 (human)
Test: 2nd screen, 2 nM Ab

First: B1
Second: B2
The Binding Signal (fold over 6E7 parental antibody) of the first is higher: 4 fold for the first, 3.44 fold for the second.

First: B3
Second: B4
The Binding Signal (fold over 6E7 parental antibody) of the first is higher: 3.63 fold for the first, 2.23 fold for the second.

First: B5
Second: B6
The Binding Signal (fold over 6E7 parental antibody) of the first is higher: 5.02 fold for the first, 1.83 fold for the second.

Compared with B7, B8 is higher in Binding Signal (fold over 6E7 parental antibody): 1.29 fold for the first, 3.39 fold for the second.

Compared with B9, B10 is lower in Binding Signal (fold over 6E7 parental antibody): 2.54 fold for the first, 0.66 fold for the second.

Compared with B11, B12 is lower in Binding Signal (fold over 6E7 parental antibody): 2.3 fold for the first, 0.58 fold for the second.

Going from B13 to B14, the Binding Signal (fold over 6E7 parental antibody) falls from 3.35 fold to 1.29 fold.

Compared with B15, B16 is lower in Binding Signal (fold over 6E7 parental antibody): 3.69 fold for the first, 1.87 fold for the second.

Compared with B17, B18 is higher in Binding Signal (fold over 6E7 parental antibody): 4.88 fold for the first, 5.11 fold for the second.

Compared with B19, B20 is higher in Binding Signal (fold over 6E7 parental antibody): 4.17 fold for the first, 4.91 fold for the second.

For B21, the Binding Signal (fold over 6E7 parental antibody) was 3.41 fold.

Target: T1, human TREM2 (human)
Test: 1st screen, 110 nM Ab

Compared with B22, B23 is higher in Binding Signal (fold over 6E7 parental antibody): 0.3 fold for the first, 0.79 fold for the second.

Compared with B24, B25 is lower in Binding Signal (fold over 6E7 parental antibody): 0.18 fold for the first, 0.17 fold for the second.

First: B26
Second: B27
The Binding Signal (fold over 6E7 parental antibody) of the first is lower: 0.59 fold for the first, 0.61 fold for the second.

Compared with B28, B29 is higher in Binding Signal (fold over 6E7 parental antibody): 0.4 fold for the first, 0.82 fold for the second.

First: B30
Second: B31
The Binding Signal (fold over 6E7 parental antibody) of the first is lower: 0.23 fold for the first, 0.76 fold for the second.

Work on B32 yielded a Binding Signal (fold over 6E7 parental antibody) of 0.79 fold.
